According to a protein production outcome set (Wang et al. 2014):

Experiment: label from the status in PepcDB records

Row | Sequence | protein production
1 | SSPIRLSTSNLPMTLTTNTSSGAPNKAFNTSSVNSGNSFSRTTTSSTTTTTERIEIRAEGDGEVDTDSIRKRITERLRRSVSKTISNLAGTPVTNTEEGSRYSRSVSRSVYDDEKSSKRSYSTGEEDIDEEDELEEDQFRSFNVTRKSATPAEISCRQLKAPREFGGWLGAFLFLLLLPTAVYYLTWSCTARNACQFKHLNLGILLDVNYLTRQVFQPRVVGAFAAYQVVVFLLVALLPGRRVHLTRETYKFNCLAVSLTLLIASGVAEYLKYPVVTFVLRHYLRFCIFGLVGAFVAAAW | failed
2 | SSPPSGCPMHEGKMKGCPVNTEPSGPTCEKKTYSVPAHQERAYEYVECPIRGTAAENKENLDPSNLMPPPNQTPAPDQPFALSTVREESSIPRADSEKKWVYPSEQMFWNAMLKKGWKWKDEDISQKDMYNIIRIHNQNNEQAWKEILKWEALHAAECPCGPSLIRFGGKAKEYSPRARIRSWMGYELPFDRHDWIINRCGTEVRYVIDYYDGGEVNKDYQFTILDVRPALDSLSAVWDRMKVAWWRWTS | failed
3 | SSQPVISAQEQETQIVLYGKLVEARQKHANKMDVPPAILATNKILVDMAKMRPTTVENVKRIDGVSEGKAAMLAPLWEVIKHFCQTNSVQTDLFSSTKPQ | not failed
4 | SSRRRRIVAAARDYVLAHRSRPVGVPELCEQLHVSRRTLQYCFQDVLGMAPATYLRALRLNGVRRDLRGRAADSVQDVAAAWGFWHLSQFATDYRRMFGARPSETLRGALA | failed
5 | SSSKGISNALKDLVEDFERELGRMLSPFELEDLQKTVSDDKTDPDLVRSALREAVFNGKTNWNYIQAILRNWRHEGI | failed
6 | STGNAGEWCLMESDPGVFTELIKGFGCRGAQVEEIWSLEPENFEKLKPVHGLIFLFKWQPGEEPAGSVVQDSRLDTIFFAKQVINNACATQAIVSVLLNCTHQDVHLGETLSEFKEFSQSFDAAMKGLALSNSDVIRQVHNSFARQQMFEFDTKTSAKEEDAFHFVSYVPVNGRLYELDGLREGPIDLGACNQDDWISAVRPVIEKRIQKYSEGEIRFNLMAIVSDRKMIYEQKIAELQRQLAEEPMDTDQGNSMLSAIQSEVAKNQMLIEEEVQKLKRYKIENIRRKHNYLPFIMELLKTLAEHQQLIPLVEKAKEKQNAKKAQETK | not failed
7 | STHKLIRQDNSELIYYLDKQAEHNKTLLVLMQGSDCNSIKNNTFIQETFGRWLPSSDVLMVEKYGITAQLTYSDDNGEREDCPKNYKLHDNPNQRLADYLAVLDKLSPNYTNIVLLGGSEGATMVHLVVAERHDISAAIALNGGGRFFLDDVLYNIRNTTPKEHVEEAINSFQQLANAIITNQIGDEQFVSEHSKLWWQQYLAIDLLEVIKRNTQTPVLIVQTLDDINVDVAAFHQLSQEITQPNVTFIKYDKLNHGFYNQQGERLTGKVVQDIQQWYAQYNK | not failed
8 | STITYYRTDLFKQAGLSMPERPTWTQLGEFAAKLHQPDKGVYGMCLRGKAGWGENIALLSTMANAFGARWFDEHWKPELNSPEWANAANFYVNTLKNYGPPGVSSNGFNETLALFNSGKCALWVDASVAGSFTTDKEQSKVVDSVGFAPAPVEVTDKGSSWLYAWSLAIPATSRHKDAAKAFITWATSKAYIQLVAEKDGITNVPPGTRTSTYSEA | failed
9 | STMTVIKDYYALKENEICVSQSEVVQVLAVNQQNMCLVYQPASDHSPAAKGWVPGSILAPF | not failed
10 | STQYMELNQRDEKSPFRNANLRKAISYSIDRKALVESILGDGSIEPNGLVPADMAKDPSGGKDFAKEAGSQIEYDTKKAKEYWEKAKKELGISTLTMDILSSDADSSKKTVEFVQGSIQDALDGVKVTVSPVPFSVRLDRSNKGDFDAVIGGWSADYADPSSFLDLFASDNSYNRGRYNNAEFDKFVKAASSADATDPEKRWDDMLNAEKTIMGDMGVVPLFQKS | not failed
11 | STRPVGGTEYSWCRAIDGGTGIAVIALLLSRTPKLQNLQNTLDKLQIYHPTLRSNIRFDASANSFSFVVTSAADSHVEIHPFDSVSTAQIIRDSDDPCADPHRIILEHEMNKNTWINPHRWIKSESRVFIVSLYDLTDDGEQRILTFRLNTAAVDRTAAVTLLREFMKETAADGFGNGPVVAATETAVGLGKAIEELIPSGKGDKPFWARGIDVLGYSLNAFRFSNLNFVDAENSNRRSQLVRLKLDRDQTLKLVAGCKARGLKLWAALASSALIAAYSSKNLPPYQGEKYAVVTLSDCRSILEPPLTSNDFGFYHAGILHTHDLTGEEKLWDLAKRCYDSFTSSKNSNKQFTDMSDLNFLMCKAIENPNLTPSSSLRTAFISIFEDPVIDESPEPELASLGVQDYIGCASIHGVGPSVAVFDALRDGKLDCAFVYPSPLHSREQMDGLIQHMKTILLEGSASSF | not failed
